Results on three molecules are retold here after patent US20050153377A1 (ORIENTAL YEAST CO., LTD., priority 1999, published 2005).

The target in test [1] is T1, CRP (Homo sapiens, UniProt P02741).
T1 construct: purchased Oriental Yeast Co., Ltd. (Japan); host or cells: Escherichia coli
T1 sequence (P02741 19-224): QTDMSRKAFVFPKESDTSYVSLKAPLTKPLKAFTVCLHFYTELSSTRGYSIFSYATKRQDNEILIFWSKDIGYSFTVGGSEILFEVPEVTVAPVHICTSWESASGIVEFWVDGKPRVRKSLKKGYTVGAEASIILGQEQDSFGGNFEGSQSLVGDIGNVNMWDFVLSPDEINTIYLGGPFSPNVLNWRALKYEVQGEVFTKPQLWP
Nature of the test: CRP activity to bind to immobilized PC-BSA, PC-antibody method (C). The settings on record: Eu3+-labeled anti-CRP antibody, FIG. 6. Format: binding. Here is the method:
Because it was difficult to immobilize PC-BSA without modification of the microtiter plate, PC-BSA was immobilized on the wells of a microtiter plate by using the PVLA method [Suzuki, N., et al., (1997) Anal. Biochem. 247, 4-12-416]. PVLA (2 mg) was suspended in 1 ml of water by ultrasonication; the resulting PVLA suspension of 40 μl was added to each well, for overnight incubation at 4° C. 1 mM NaIO4 solution was added in 50 μl-portions to each well, and the plate was incubated in darkness at ambient temperature for one hour. After the plate was washed, the PC-BSA solution (100 ng protein in 40 μl of water) was added to each well, followed by mixing with 5 μl of 2% (v/v) borane-pyridine complex, for incubation at 37° C. for 2 hours. The wells were blocked through incubation with 1M glycylglycine (40 μl) at 37° C. for 4 hours, and then followed by incubation with 200 μl of TBS containing 2% (w/v) BSA at 4° C. overnight. After the added solutions were removed at the individual stages of the following method, the wells were washed six times with 200 μl of TBS.
So as to immobilize PC58- or PC7-BSA solution (40 μl containing […] and PC of about 120 pmol or 15 pmol) in water, the solution was left to stand in the PVLA-coated well. After the wells were coated with PC-BSA and blocked with BSA, they were then washed six times with TBS (200 μl). […]

The target of test [2] is PC58-BSA (conjugate with 58 phosphorylcholine molecules on average bound per one bovine serum albumin molecule) (bovine) (UniProt P02769). Briefly: quantitative precipitation at saturation, 20 µg PC58-BSA with 50 µg CRP.
Sequence of PC58-BSA (conjugate with 58 phosphorylcholine molecules on average bound per one bovine serum albumin molecule) (bovine) (P02769 25-607 limits assumed, form in doubt): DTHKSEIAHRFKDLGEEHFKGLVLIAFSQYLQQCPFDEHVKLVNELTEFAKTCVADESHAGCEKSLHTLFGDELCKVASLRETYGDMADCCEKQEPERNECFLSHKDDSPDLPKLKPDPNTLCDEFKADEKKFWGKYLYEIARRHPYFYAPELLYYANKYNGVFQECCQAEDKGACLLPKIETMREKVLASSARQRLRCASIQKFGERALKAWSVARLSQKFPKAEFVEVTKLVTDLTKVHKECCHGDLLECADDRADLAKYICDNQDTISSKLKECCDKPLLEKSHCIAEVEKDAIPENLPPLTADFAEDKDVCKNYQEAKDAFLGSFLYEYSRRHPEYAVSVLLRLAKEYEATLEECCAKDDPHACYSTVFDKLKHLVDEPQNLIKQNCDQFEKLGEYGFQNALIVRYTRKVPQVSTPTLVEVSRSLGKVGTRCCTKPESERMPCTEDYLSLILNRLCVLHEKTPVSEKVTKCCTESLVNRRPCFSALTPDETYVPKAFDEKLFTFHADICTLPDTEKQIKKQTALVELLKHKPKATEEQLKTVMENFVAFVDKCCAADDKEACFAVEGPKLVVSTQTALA

For the molecule “PC58-BSA: conjugate where 58 PC molecules on average are bound per one BSA molecule”, in test [1], the “anti-CRP antibody (IgG) bound per PC-BSA-coated well” value was determined as 5.6 fmol per well. For “PC7-BSA: PC conjugate of bovine serum albumin (BSA) produced by the previously reported method”, the “anti-CRP antibody (IgG) bound per PC-BSA-coated well” value in test [1] was 2.2 fmol per well.

B1: Recombinant human C-reactive protein (rhCRP) expressed in Escherichia coli (protein, UniProt P02741 19-224, looked up)
chain: T1 sequence (P02741 19-224)
Turning to B1, in test [2], the amount of CRP in the precipitate came to 0.37 nmol, the amount of PC58-BSA in the precipitate was determined as 0.17 nmol and the ratio PC58-BSA:CRP in the precipitate (mol CRP (pentamer) per mol PC58-BSA) was 2.2.
